Here are results for 7 molecules from US20260092110A1 (Kyowa Kirin, published 2026).

The target in assay [1] is T1, extracellular domain protein of human MOG to which GST is added at the C-terminus (hMOG-GST) (human). Briefly: SPR, antibody captured, hMOG-GST analyte. The method, then:
(§1) The antibodies were immobilized on CM5 sensor chips using a Human antibody Capture kit, and the binding abilities were evaluated using rMOG-GST produced in Example 4 as an analyte. The obtained sensorgrams were analyzed with BIA evaluation software, and the dissociation constants (KD values) were thus calculated.
The results of evaluation of the affinities to human MOG are shown in Table 14, and the results of evaluation of the affinities to mouse MOG are shown in Table 15.
(SPR reads the build-up and loss of mass on a sensor chip optically.)

The target of assay [2] is T1, extracellular domain protein of human …. Briefly: SPR, antibody captured, hMOG-GST analyte; ka outside the measurement range.
Assay [3] addresses T2, extracellular domain protein of mouse MOG to which GST is added at the C-terminus (mMOG-GST) (mouse). Briefly: SPR, antibody captured, mMOG-GST analyte; paragraph 625: KD could not be determined as a unique value.
Assay [4] addresses T1, extracellular domain protein of human …. Briefly: SPR, antibody captured, hMOG-GST analyte; KD not unique (ka outside range).
Assay [5] deals with T2, extracellular domain protein of mouse …. In words: SPR, antibody captured, mMOG-GST analyte.
The target is the same in assay [6]. In words: SPR, antibody captured, mMOG-GST analyte; paragraph 625: ka of MOG01 scFv-hG4PE outside the measurement range.
For assay [7], the target named is T3, cynomolgus monkey MOG (cMOG) expressed on HEK293 cells (cynomolgus monkey, UniProt Q9BGS7 30-247).
T3 construct: also called cMOG/HEK293
T3 sequence: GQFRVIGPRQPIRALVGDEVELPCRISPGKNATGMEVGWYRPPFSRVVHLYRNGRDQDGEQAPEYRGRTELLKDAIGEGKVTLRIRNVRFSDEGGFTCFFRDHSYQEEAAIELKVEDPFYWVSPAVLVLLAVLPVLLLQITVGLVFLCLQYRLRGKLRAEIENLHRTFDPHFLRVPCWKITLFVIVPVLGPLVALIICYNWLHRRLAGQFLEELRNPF
In words: flow cytometry on HEK293 cells transiently expressing cynomolgus monkey MOG; RPE-labelled goat anti-human antibody; negative control anti-AVM antibody.

In assay [8] the target is T4, extracellular domain protein of rat MOG to which GST is added at the C-terminus (rMOG-GST) (rat).
T4 construct: whole construct entry
Briefly: SPR Biacore T-100, antibody captured, rMOG-GST analyte. On the procedure:
as §1

For assay [9], the target named is T5, human MOG (hMOG) expressed on HEK293, Expi293F or L929 cells (human, UniProt Q16653 30-247).
T5 construct: also called hMOG/HEK293; hMOG/HEK293F
T5 chain: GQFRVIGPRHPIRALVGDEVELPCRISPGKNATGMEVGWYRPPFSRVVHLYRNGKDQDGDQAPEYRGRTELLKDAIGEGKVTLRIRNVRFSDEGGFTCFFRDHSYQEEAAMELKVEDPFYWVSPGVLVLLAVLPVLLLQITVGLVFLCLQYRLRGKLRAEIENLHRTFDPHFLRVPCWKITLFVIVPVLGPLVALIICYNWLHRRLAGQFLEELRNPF
In words: flow cytometry on HEK293 cells transiently expressing human MOG; antibody at 10 µg/mL, RPE-labelled goat anti-human antibody; negative control anti-AVM antibody. The method, then:
(§2) rMOG/HEK293F, mMOG/IEK293F, cMOG/HEK293 and hMOG/HEK293 cells were suspended in a Staining Buffer (SB) of PBS containing 0.1% NaN₃ and 1% FBS each at a concentration of 5×10⁵ cells/mL and dispensed to a round-bottom 96-well plate (manufactured by Becton Dickinson).
(§3) After centrifugation (2000 rpm, 4° C., two minutes), the supernatants were removed, and the antibodies obtained in Example 6 at 10 μg/mL were added to the pellets. After suspending the pellets, the plate was left to stand at ice temperature for 30 minutes. The supernatants were removed after further centrifugation (2000 rpm, 4° C., two minutes), and the pellets were washed with SB. Then, 1 μg/mL RPE fluorescently labeled goat anti-human antibody (manufactured by […]) was added, and the plate was incubated at ice temperature for 30 minutes.
(§4) After washing with SB, the cells were suspended in SB, and the fluorescence intensities of the cells were measured using a flow cytometer FACS CANTO II (manufactured by Becton Dickinson). As the negative control, an anti-AVM antibody was used.

Assay [10] concerns the target T6, rat MOG (rMOG) expressed on HEK293F cells (rat, UniProt Q63345 28-245).
T6 construct: also called rMOG/HEK293F
T6 sequence: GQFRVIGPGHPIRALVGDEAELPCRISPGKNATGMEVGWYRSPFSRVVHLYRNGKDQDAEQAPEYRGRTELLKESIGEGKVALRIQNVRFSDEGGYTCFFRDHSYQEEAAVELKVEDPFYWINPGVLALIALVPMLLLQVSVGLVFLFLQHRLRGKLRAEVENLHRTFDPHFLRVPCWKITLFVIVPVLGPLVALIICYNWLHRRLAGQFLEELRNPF
In words: flow cytometry on HEK293 cells transiently expressing rat MOG; antibody at 10 µg/mL, RPE-labelled goat anti-human antibody; negative control anti-AVM antibody. The method, then:
as §2, §3, §4
For orientation: A flow cytometer gives signals particle by particle.

Assay [11] has as its target T3, cynomolgus monkey MOG (cMOG) expressed …. Briefly: flow cytometry on HEK293 cells transiently expressing cynomolgus monkey MOG; antibody at 10 µg/mL, RPE-labelled goat anti-human antibody; negative control anti-AVM antibody. The method, then: as §2, §3, §4
In assay [12] the target is T4, extracellular domain protein of rat MOG …. In words: SPR as in Example 8 (antibody captured, rMOG-GST analyte). The method, then: as §1
For assay [13] the target is unchanged. Described as above. On the procedure: as §1
Binding of the bispecific antibodies obtained in Example 6 and Example 16 to MOG was evaluated by the same method as that of Example 8.
This is another data set of the same source.

The target of assay [14] is T5, human MOG (hMOG) expressed on HEK293, …. In words: flow cytometry, hMOG/L929 cells. The source says: pEF6_hMOG obtained in Example 5 was introduced to mouse connective tissue-derived fibroblast L929 cells [American Type Culture Collection (ATCC) No.: CCL-1] using HilyMax (manufactured by Dojindo Laboratories). The gene-transfected cells were selected using an antibiotic substance, Blasticidin (manufactured by Invitrogen) and then cloned by the limiting dilution method. Using the L929 cells expressing hMOG on the cell surface (abbreviated as hMOG/L929 below), the reactivities of the bispecific antibodies were analyzed by the method described below.
The hMOG/L929 cells were suspended in a Staining Buffer (SB) of PBS containing 0.1% NaN₃ and 1% FBS and dispensed to a round-bottom 96-well plate (manufactured by Becton Dickinson). […] After suspending the pellets, the plate was left to stand at ice temperature for 30 minutes. The supernatants were removed after further centrifugation (2000 rpm, 4° C., two minutes), and the pellets were washed with SB. Then, 1 μg/mL RPE fluorescently labeled goat anti-human antibody (manufactured by Southern Biotech) was added, and the plate was incubated at ice temperature for 30 minutes. After washing with SB, the cells were suspended in SB, and the fluorescence intensities of the cells were measured with a flow cytometer FACS CANTO II (manufactured by Becton Dickinson). The results are shown in FIGS. 12A to 12C and FIGS. 13A and 13B.

T2 sequence (chain, as listed by the source limits assumed): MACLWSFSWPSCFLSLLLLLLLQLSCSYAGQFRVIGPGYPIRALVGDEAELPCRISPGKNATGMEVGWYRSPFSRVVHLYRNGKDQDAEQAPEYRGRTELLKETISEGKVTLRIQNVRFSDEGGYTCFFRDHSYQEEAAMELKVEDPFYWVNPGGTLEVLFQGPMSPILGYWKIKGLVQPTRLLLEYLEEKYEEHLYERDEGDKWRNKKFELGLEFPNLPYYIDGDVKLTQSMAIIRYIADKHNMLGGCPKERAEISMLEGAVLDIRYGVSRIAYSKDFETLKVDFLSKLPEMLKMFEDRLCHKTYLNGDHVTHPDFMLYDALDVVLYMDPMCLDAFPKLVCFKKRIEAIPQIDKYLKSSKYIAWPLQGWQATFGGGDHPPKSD

B1: MOG01 scFv-hG4PE (Fc fusion)
chain: QVQLQQSGAGLLKPSETLSLTCAVSGGSFSGYYWTWIRQRPGKGLEWIGEINHRGSTDYNPSLKSRVTMSIDTSKSQFSLNLKSVTAADTAVYYCARAAWGSCYDGTCYPAEYFQYWGQGTLVTVSSGGGGSGGRASGGGGSQSALTQPASVSGSPGQSITISCTGTSRDVGGYNYVSWYQQHPGKAPKLMIYDVNNRPSGVSNRFSGSKSGNTASLTISGLQAEDEADYFCSSYTSSSTPVVFGGGTKLTVL
A word on the koff: it is a measure of how fast the partners let go of each other. By kon is commonly meant the rate constant with which the complex forms. One may read the Kd as the constant that tells how readily two partners part at equilibrium. As to B1, the values for the dissociation rate constant (koff) in [1] and in assay [5] were 0.015 s⁻¹ and 0.04 s⁻¹, respectively. Further, the on-rate constant (kon) was determined as 4.1e+06 M⁻¹ s⁻¹ in assay [2] and 5.9e+06 M⁻¹ s⁻¹ in [6]. For the same molecule, the Kd in assay [3] is 6.9 nM; in assay [4] it was 3.6 nM.

B2: iMOG-3Rim1-S32 antibody (VHH-Fc expressed from N5G4PEFc_iMOG-3Rim1-S32) (Fc fusion)
chain: QVQLVESGGGLVQTGGSLRLSCAASGSMFSTMGWFRQAPGNQRELVAIMSSGGTANYADSVKGRFTISGDNVKNTVTLQMNSLNPEDTAVYYCRFTGWVKSSFSTYWGQGTQVTVSS
notes: not shown: Fc region of human IgG4PE
Take B2: the binding result in [7] is reported as “no binding (tested: 10 µg/mL)”.

B3: MOG01 antibody (anti-MOG human IgG antibody expressed from N5LG4PE_MOG01) (antibody, V domains shown)
VH: QVQLQQSGAGLLKPSETLSLTCAVSGGSFSGYYWTWIRQRPGKGLEWIGEINHRGSTDYNPSLKSRVTMSIDTSKSQFSLNLKSVTAADTAVYYCARAAWGSCYDGTCYPAEYFQYWGQGTLVTVSS
VL: QSALTQPASVSGSPGQSITISCTGTSRDVGGYNYVSWYQQHPGKAPKLMIYDVNNRPSGVSNRFSGSKSGNTASLTISGLQAEDEADYFCSSYTSSSTPVVFGGGTKLTVL
notes: also called anti-MOG01 human IgG antibody; MOG01 IgG4PE
In assay [8], B3 gave an equilibrium dissociation constant (Kd) of 6.6 nM, a koff of 0.00095 s⁻¹ and a kon of 140000 M⁻¹ s⁻¹. Besides, the binding result in [9] is “binds”. Further, the binding result in assay [10] is given as “binds”. In addition, in assay [11], the binding result is recorded as “binds”.

B4: AVM IgG4PE(R409K)_MOG01dscFv antibody (bispecific antibody)
heavy: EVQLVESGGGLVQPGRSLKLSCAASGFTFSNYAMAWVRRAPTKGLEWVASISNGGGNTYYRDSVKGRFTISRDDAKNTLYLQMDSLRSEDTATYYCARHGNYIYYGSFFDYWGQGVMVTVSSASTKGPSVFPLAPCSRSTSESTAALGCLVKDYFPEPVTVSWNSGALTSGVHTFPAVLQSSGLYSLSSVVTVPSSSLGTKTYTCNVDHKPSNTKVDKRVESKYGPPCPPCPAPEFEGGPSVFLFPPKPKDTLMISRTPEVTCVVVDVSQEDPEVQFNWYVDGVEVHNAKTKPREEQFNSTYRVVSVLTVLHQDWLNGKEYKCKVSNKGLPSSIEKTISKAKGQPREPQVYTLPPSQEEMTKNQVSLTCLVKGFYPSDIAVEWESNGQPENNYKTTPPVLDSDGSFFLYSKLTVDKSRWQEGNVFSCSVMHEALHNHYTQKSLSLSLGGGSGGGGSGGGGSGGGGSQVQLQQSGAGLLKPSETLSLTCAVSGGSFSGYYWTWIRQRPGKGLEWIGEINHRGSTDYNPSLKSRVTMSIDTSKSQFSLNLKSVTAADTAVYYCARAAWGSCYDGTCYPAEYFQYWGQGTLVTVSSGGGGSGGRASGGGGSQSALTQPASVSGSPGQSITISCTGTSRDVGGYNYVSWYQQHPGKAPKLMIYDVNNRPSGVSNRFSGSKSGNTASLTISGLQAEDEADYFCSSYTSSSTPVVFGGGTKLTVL
light: QFVLSQPNSVSTNLGSTVKLSCKRSTGNIGSNYVSWYQQHEGRSPTTMIYRDDKRPDGVPDRFSGSIDRSSDSALLTINNVQTEDEADYFCQSYSSGINIFGGGTKLTVLGQPKAAPSVTLFPPSSEELQANKATLVCLISDFYPGAVTVAWKADSSPVKAGVETTTPSKQSNNKYAASSYLSLTPEQWKSHRSYSCQVTHEGSTVEKTVAPTECS
notes: MOG01 scFv fused to the C-terminus of anti-AVM IgG; also called pCI-AVM-hLG4PE(R409K)_MOG01scFv
Take B4: in assay [12], the Kd was 200 nM, the off-rate (koff) worked out at 0.0046 s⁻¹ and the kon was determined as 23000 M⁻¹ s⁻¹. In assay [13], this molecule yielded a Kd of 200 nM, an off-rate constant (koff) of 0.0049 s⁻¹ and a kon of 24000 M⁻¹ s⁻¹.

B5: AVM IgG4PE(R409K)_MOG01dscFv3 antibody (bispecific antibody)
heavy: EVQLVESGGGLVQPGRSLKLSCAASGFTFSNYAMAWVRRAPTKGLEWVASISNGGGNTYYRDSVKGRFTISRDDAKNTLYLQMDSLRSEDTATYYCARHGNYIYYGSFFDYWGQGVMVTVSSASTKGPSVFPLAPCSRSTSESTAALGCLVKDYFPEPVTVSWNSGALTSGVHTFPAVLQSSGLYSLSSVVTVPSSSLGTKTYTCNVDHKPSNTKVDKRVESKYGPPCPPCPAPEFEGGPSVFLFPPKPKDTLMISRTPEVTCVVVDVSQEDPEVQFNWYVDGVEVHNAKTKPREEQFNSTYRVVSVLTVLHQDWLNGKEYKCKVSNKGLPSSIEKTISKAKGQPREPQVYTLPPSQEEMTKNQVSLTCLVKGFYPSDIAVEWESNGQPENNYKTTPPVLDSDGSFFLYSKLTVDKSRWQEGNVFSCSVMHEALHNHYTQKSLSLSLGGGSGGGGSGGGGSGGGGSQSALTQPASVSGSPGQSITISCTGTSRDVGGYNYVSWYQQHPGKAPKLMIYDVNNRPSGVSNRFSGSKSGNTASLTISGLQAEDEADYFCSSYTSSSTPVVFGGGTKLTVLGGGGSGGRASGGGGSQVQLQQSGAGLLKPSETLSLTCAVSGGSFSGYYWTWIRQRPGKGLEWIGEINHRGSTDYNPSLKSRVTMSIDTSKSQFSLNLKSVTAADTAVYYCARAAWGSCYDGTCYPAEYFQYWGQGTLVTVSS
light: QFVLSQPNSVSTNLGSTVKLSCKRSTGNIGSNYVSWYQQHEGRSPTTMIYRDDKRPDGVPDRFSGSIDRSSDSALLTINNVQTEDEADYFCQSYSSGINIFGGGTKLTVLGQPKAAPSVTLFPPSSEELQANKATLVCLISDFYPGAVTVAWKADSSPVKAGVETTTPSKQSNNKYAASSYLSLTPEQWKSHRSYSCQVTHEGSTVEKTVAPTECS
notes: also called pCI-AVM-hLG4PE(R409K)_MOG01scFv3
Turning to B5, the binding result in assay [14] is “binds”. In assay [13], this molecule gave a dissociation constant (Kd) of 13 nM, a dissociation rate constant (koff) of 0.0022 s⁻¹ and a kon of 170000 M⁻¹ s⁻¹.

B6: AVM IgG4PE(R409K)_MOG01dscFv5 antibody (bispecific antibody)
heavy: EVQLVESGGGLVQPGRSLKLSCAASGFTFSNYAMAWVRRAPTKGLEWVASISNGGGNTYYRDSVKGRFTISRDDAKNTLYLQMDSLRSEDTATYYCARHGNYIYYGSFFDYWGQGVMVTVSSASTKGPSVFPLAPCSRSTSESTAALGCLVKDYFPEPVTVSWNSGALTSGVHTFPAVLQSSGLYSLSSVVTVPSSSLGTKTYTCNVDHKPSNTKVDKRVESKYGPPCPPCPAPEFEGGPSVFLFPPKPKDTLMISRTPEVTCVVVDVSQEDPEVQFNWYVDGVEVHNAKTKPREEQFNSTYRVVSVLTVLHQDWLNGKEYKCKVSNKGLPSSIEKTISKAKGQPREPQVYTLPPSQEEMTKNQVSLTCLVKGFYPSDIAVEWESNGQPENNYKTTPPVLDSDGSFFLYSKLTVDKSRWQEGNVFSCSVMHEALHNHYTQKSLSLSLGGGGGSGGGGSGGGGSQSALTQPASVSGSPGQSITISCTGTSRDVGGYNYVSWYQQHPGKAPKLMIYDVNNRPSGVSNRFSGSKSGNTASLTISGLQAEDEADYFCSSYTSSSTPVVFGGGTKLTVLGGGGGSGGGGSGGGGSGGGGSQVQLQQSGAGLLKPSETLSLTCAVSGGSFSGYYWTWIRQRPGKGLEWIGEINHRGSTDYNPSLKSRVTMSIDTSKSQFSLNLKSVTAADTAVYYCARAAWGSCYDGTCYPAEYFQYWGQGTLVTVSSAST
light: QFVLSQPNSVSTNLGSTVKLSCKRSTGNIGSNYVSWYQQHEGRSPTTMIYRDDKRPDGVPDRFSGSIDRSSDSALLTINNVQTEDEADYFCQSYSSGINIFGGGTKLTVLGQPKAAPSVTLFPPSSEELQANKATLVCLISDFYPGAVTVAWKADSSPVKAGVETTTPSKQSNNKYAASSYLSLTPEQWKSHRSYSCQVTHEGSTVEKTVAPTECS
notes: also called pCI-AVM-hLG4PE(R409K)_MOG01scFv5
As for B6, the binding result in assay [14] is “binds”. In [13], this molecule came in with a dissociation constant Kd of 24 nM, a koff of 0.0048 s⁻¹ and an association rate constant (kon) of 200000 M⁻¹ s⁻¹.

B7: MOG14 antibody (anti-MOG human IgG antibody expressed from N5KG4PE_MOG14) (antibody, V domains shown)
VH: QVQLVQSGAEVKKPGASVKVSCQASGYTFTGDYIHWVRQAPGQGLEYLGWINPDRGFTYYTQKFQGRVTMTRDTSSNTAYMELSSLRSDDTAMYYCTRENPRAYFFDLWGQGTLVTVSS
VL: EIVLTQSPGTLSLSPGERATLSCRASQSISGSYVTWYQQKPGQAPRLLIYATSNRAIGIPDKFSGGGSGRDFTLTINRLEPEDFAVYYCQQSVSSPYTFGQGTKVEIK
In [8], B7 had an equilibrium dissociation constant (Kd) of 40 nM, a koff of 0.00019 s⁻¹ and an on-rate constant (kon) of 4700 M⁻¹ s⁻¹. Besides, the binding result in [9] is “binds”. For the same molecule, the binding result in assay [10] is on record as “binds”. The binding result in assay [11] is reported as “binds”.
